According to patent US20220332804A1 (CSL INNOVATION, published 2022):

How the values were obtained:
Assay in all cases: SPR, mAb captured, C2 mutant analyte;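 also: Anti-C2 mAbs captured on goat anti-human IgG Biacore CM5 chips, alanine or serine C2 surface mutants flowed over at 37 °C, double-referenced sensorgrams fitted to a 1:1 binding model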
[1] = molecular target: T1, human C2 D454A (human, UniProt P06681 21-752)
T1 sequence: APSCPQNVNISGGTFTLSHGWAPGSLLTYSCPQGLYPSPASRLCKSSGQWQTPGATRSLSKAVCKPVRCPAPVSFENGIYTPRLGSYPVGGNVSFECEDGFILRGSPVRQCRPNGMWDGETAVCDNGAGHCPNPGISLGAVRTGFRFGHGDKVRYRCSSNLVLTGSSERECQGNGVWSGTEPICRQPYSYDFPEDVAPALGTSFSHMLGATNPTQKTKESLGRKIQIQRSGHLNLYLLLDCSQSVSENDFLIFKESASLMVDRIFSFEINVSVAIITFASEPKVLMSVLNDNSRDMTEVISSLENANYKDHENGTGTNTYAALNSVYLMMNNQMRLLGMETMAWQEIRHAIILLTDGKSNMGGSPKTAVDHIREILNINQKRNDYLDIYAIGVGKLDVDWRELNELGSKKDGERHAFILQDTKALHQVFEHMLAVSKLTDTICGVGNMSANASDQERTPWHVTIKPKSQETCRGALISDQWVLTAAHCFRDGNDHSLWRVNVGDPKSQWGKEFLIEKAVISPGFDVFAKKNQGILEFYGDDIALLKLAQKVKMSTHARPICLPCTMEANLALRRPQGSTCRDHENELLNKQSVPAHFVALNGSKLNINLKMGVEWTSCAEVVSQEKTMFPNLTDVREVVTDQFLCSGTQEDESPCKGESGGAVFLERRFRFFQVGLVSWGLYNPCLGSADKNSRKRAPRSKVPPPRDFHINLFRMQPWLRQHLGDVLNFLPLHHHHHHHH
Description: (§1) Surface plasmon resonance (SPR, Biacore) was used for all binding affinity analyses. In brief, goat anti-human IgG was directly immobilised onto the carboxymethyl dextran surface of CM5 sensorchips to approximately 12,000 RU using standard NHS/EDC chemistry at pH 5. The immobilised antibody surface was pre-conditioned with ten injections of polyclonal human IgG (Privigen 60 s) prepared at 1 μg/mL. Ligands (anti-C2 mAbs) were captured at the beginning of each cycle as described below. An adjacent spot or flow cell in which only Polyclonal IgG was capture was used as a reference surface. The goat anti-human IgG Fc antibody surface was regenerate in 100 mM H3PO4, injected for 45 seconds at the end of each cycle. Experiments were performed at 37° C. and the flow rate of each experiment was kept constant at 30 μL/min.
(§2) Sensogram data was double-referenced against a reference anti-IgG surface (i.e. minus anti-C2 mAb) and blank buffer injections obtained within each experiment. The binding data was fit to 1:1 (kinetic or steady-state) model using local Rmax and null refraction index (RI=0) when appropriate. Buffers and solutions were filtered (0.22 μm) prior to use.

[2] = molecular target: T2, human C2 A444S (human, UniProt P06681 21-752)
T2 sequence: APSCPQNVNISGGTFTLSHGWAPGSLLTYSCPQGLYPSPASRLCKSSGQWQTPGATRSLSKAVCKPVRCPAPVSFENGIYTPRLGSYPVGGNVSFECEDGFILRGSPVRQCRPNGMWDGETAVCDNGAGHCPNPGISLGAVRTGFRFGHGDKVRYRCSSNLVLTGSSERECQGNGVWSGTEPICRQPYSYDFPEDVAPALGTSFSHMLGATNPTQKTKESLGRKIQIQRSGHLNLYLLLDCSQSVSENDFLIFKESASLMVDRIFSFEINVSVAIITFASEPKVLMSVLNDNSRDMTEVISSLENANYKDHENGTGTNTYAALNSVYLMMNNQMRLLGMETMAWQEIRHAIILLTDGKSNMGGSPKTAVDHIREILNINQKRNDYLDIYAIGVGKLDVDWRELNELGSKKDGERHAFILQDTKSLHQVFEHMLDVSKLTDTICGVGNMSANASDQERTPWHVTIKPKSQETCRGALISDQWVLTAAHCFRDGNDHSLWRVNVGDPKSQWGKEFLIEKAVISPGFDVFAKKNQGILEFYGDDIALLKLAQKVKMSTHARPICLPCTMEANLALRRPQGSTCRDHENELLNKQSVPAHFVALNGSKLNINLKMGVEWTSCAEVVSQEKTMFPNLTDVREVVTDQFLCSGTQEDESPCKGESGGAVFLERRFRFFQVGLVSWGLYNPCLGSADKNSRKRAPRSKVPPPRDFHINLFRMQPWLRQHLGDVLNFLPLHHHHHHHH
Description: as §1, §2

[3] = molecular target: T3, human C2 V448A (human, UniProt P06681 21-752)
T3 sequence: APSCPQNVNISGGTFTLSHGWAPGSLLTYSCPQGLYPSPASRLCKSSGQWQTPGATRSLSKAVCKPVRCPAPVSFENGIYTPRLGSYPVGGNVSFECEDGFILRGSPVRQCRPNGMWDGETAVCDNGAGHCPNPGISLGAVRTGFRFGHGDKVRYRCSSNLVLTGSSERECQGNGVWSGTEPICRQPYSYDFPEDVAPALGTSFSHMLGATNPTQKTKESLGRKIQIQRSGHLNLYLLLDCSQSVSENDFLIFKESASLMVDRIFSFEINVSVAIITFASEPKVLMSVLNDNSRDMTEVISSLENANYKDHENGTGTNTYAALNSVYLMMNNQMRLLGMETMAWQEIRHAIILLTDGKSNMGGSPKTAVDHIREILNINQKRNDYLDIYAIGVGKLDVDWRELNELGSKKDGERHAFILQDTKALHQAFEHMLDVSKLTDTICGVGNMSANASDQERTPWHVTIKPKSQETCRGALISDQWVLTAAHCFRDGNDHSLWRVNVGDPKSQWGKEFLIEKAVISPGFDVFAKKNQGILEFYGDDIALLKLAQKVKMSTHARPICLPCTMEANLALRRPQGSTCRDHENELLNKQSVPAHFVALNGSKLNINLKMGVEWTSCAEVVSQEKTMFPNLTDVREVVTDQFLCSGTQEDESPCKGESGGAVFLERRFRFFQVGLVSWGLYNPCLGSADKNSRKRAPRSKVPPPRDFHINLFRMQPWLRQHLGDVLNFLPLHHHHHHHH
Description: as §1, §2

[4] = molecular target: T4, human C2 S428A (human, UniProt P06681 21-752)
T4 sequence: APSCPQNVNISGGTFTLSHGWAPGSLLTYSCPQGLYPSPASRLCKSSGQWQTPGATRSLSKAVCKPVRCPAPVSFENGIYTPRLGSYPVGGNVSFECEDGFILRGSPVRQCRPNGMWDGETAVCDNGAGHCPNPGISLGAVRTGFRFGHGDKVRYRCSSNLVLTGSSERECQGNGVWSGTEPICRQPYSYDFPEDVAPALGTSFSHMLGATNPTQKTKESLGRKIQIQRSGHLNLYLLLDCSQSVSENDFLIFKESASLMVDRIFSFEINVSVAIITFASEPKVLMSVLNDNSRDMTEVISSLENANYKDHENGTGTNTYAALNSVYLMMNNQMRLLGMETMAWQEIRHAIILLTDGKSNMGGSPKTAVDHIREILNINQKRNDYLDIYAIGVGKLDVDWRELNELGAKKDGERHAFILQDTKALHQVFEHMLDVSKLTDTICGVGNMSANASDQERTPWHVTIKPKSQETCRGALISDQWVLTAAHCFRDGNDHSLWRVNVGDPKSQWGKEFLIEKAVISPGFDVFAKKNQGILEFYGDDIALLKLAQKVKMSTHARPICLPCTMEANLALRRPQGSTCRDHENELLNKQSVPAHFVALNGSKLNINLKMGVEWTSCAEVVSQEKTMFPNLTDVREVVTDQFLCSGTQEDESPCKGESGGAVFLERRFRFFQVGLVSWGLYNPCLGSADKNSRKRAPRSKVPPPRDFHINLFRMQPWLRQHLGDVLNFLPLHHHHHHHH
Description: as §1, §2

B1: RF16-214 (antibody, V domains shown)
VH: EVQLLESGGGLVQPGGSLRLSCAASGFTFSWYQMMWVRQAPGKGLEWVSRIYPSGGGTAYADSVKGRFTISRDNSKNTLYLQMNSLRAEDTAVYYCARDAGYGDNWGQGTLVTVSS
VL: QSALTQPPSVSVSPGQTASITCSGDKLGEKYASWYQQKAGQSPVMVIYQDRKRPSGIPERFSGSNSGNTATLTISGTQAMDEADYYCQAWDTRAVVFGGGTKLTVLG
In the case of B1, the Kd [1] is reported as 111 nM, the Kd [2] is reported as 20.7 nM and the Kd [3] is reported as 6.9 nM. The Kd [4] was 58.6 nM.
